In paper PMC12618484 (Nature Communications, 2025):
Substitutions are numbered along the chain they refer to. Numbers in names are those of the source. One block for each molecule: values may come before it.

Columns and labels:
[1] = target: T1, dihydrolipoamide dehydrogenase (DLD) (Homo sapiens, UniProt P09622); assay: bio-layer interferometry and SPR; assay type: binding
T1 sequence (P09622 36-509): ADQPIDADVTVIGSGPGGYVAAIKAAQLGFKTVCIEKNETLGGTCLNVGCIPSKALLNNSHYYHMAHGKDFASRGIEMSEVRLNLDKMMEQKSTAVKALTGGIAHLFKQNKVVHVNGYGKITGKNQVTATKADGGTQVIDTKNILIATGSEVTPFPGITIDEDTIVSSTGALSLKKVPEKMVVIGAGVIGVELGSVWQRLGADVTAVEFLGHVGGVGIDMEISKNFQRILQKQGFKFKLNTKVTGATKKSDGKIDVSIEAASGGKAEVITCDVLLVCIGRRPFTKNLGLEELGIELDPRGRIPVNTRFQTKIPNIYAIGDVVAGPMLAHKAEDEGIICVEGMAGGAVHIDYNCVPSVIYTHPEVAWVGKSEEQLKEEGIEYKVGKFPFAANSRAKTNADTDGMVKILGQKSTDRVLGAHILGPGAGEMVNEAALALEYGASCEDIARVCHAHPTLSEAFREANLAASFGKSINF

cross-linking = target: the molecule itself; assay: cross-linking

Kd [1]: 500 to 600 nM
Molecule: O=C(O)CCCCC(CCSCc1ccccc1)SCc1ccccc1 (stereo not drawn) [devimistat]

B1: HA-tagged DLD-K430Q (enzyme, human, UniProt P09622 36-509, looked up)
chain: T1 sequence (P09622 36-509) with K395Q
stoichiometry N (cross-linking): 2

B2: HA-tagged DLD-K430R (enzyme, human, UniProt P09622 36-509, looked up)
chain: T1 sequence (P09622 36-509) with K395R
stoichiometry N (cross-linking): 2
